Values of other authors, collected in PMC4059260.
Read-outs that look alike come from different tables or passages of the source.

Assays:
VEGF (Homo sapiens) [1] = molecular target: VEGF (Homo sapiens) (UniProt P15692)
VEGF (Homo sapiens) [2] = molecular target: VEGF (Homo sapiens) (UniProt P15692); remark: listed apart in the source

UniProt P15692, sequence (P15692 whole entry): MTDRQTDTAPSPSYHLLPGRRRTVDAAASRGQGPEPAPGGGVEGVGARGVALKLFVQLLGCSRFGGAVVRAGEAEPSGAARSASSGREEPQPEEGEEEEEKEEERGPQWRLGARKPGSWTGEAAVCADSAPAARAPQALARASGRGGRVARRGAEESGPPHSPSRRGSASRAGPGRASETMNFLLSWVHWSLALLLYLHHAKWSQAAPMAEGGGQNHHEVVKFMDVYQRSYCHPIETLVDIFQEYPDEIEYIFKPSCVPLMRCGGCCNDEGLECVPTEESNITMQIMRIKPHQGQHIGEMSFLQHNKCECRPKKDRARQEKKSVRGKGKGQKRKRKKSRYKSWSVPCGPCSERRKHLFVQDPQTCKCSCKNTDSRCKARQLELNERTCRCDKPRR

Kd (VEGF (Homo sapiens) [1]) [nM]	Kd (VEGF (Homo sapiens) [2]) [nM]	Substance
420		alpha-2-macroglobulin (from UniProt P01023)
	0.001	sFlt-1 (from UniProt P17948)
